In patent US6428997B1, “Aminopeptidase derived from Bacillus licheniformis and process for preparation of natural type proteins” (LG Chemical Ltd., priority 1997, dated 2002):

Tests used:
[1] = tested on: CC(C)C[C@H](N)C(=O)Nc1ccc([N+](=O)[O-])cc1; assay: purified protein, by the assay type; conditions: other: Tris-Cl pH 8.0, 37° C., measured by same experiment, Lineweaver-Burk plot
Method: (§1) Precisely, 1 U of enzyme activity defines the enzyme quantity changing 1 absorbance at 405 nm which is measured by the process adding aminopeptidase in 1 ml solution of 100M Tris-Cl (pH 8.0) and 2 mM leucine-p-nitroanilide (Sigma, USA), incubating at 37° C. for 1 min, then adding 100 μl of 70% acetic acid to stop the reaction. At that time leucine-p-nitroanilide was dissolved in dimethylsulfoxide (DMSO) to make 100 mM solution.
(§2) In order to compare substrate specificity of aminopeptidase of this invention, 2 kinds of substrate were used. In detail, one was synthetic substrates of p-nitroanilide derivative and purchased from Sigma, USA and the other was oligopeptide such as methionyl oligopeptide of SEQ. ID. NO: 1 which have amino acid sequence similar to N-terminus of methionyl HGH and leucyl oligopeptide of SEQ. ID. NO: 2.
(§3) Enzyme reaction of aminopeptidase was performed by the process described in Reference Examples. At that time p-nitroanilide derivative was used as synthetic substrate. Leucine p-nitroanilide was used as substrate to perform the reaction in concentration of 0.03125, 0.0625, 0.125, 0.25, 0.5, 1 mM and methionine p-nitroanilide in 0.125, 0.25, 0.5, 1 mM and aminopeptidase in 0.5 U respectively. Above reactions using leucine-p-nitroanilide proceeded for 2 min and methionine-p-nitroanilide for 40 min. Then 70% acetic acid was added to stop the reactions and absorbance at 405 nm was measured. The product concentration was measured by adopting absorbance constant ε405=9450M^−1 cm^−1.
(§4) In reaction condition mentioned above, initial velocity of enzyme reaction was measured with varying the substrate concentration. Lineweaver-Burk plot was used to determine Km value and Maximum reaction velocity of aminopeptidase from Bacillus licheniformis. In addition kcat and kcat/Km was determined by using Km value and maximum reaction velocity described above.

[2] = tested on: CSCC[C@H](N)C(=O)Nc1ccc([N+](=O)[O-])cc1; assay: purified protein, by the assay type; conditions: other: Tris-Cl pH 8.0, 37° C., measured by same experiment, Lineweaver-Burk plot
Method: as §1, §2, §3, §4

Aeromonas proteolytica (Vibrio proteolytica) aminopeptidase (Vibrio proteolyticus)
Km [1]: 240 µM | kcat [1]: 48 s⁻¹ | kcat/Km [1]: 200000 M⁻¹ s⁻¹ | Km [2]: 942 µM | kcat [2]: 2.64 s⁻¹ | kcat/Km [2]: 2800 M⁻¹ s⁻¹
